From PMC2959088, “Molecular determinants of improved cathepsin B inhibition by new cystatins obtained by DNA shuffling” (BMC Structural Biology, 2010)

Target: T1, human cathepsin L (human)
T1 construct: cathepsin L, human, bought from Calbiochem; active enzyme used at 0.3 nM; source: bought: Calbiochem
Experiment: enzyme inhibition assay (residual activity on the fluorogenic substrate Z-Phe-Arg-MCA); cathepsin B or L (0.3 nM) incubated 5 min at 37°C with varied inhibitor in 100 mM sodium acetate pH 5.5, 2.5 mM DTT; substrate 0.01 mM; triplicate; Ki(app) by non linear regression (GraFit), Ki by Morrison's procedure
Settings: both partners purified

Ki: 5.66 nM
B1: Oryzacystatin-1 N-terminal deletion (NΔ) (natural protein)
chain: MSSDGGPVGNENDLHLVDLARFAVTEHNKKANSLLEFEKLVSVKQQVVAGTLYYFTIEVKEGDAKKLYEAKVWEKPWMDFKELQEFKPVDASANA
